Experimental data from US20150125397A1, “DUAL SPECIFIC BINDING PROTEINS DIRECTED AGAINST IMMUNE CELL RECEPTORS AND AUTOANTIGENS” (ABBVIE INC., priority 2013, published 2015).

T1: mIgM (Mus musculus, UniProt P01872)
T1 sequence (P01872 1-454): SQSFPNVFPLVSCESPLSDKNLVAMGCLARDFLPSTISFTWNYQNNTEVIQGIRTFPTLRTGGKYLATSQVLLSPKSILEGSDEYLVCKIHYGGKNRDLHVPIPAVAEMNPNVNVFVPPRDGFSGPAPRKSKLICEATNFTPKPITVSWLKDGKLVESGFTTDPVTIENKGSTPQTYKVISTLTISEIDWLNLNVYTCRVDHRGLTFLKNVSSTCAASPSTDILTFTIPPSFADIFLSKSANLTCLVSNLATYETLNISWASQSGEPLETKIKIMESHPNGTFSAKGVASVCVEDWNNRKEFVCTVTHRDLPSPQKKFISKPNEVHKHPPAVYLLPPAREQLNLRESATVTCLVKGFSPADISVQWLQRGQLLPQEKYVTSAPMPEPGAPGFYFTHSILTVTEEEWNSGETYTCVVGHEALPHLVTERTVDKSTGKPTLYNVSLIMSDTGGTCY

B1: DVD3751: DVD-Ig: VD1 DNA(PA4), GS linker, VD2 mIgM (B7.6); heavy SEQ ID NO 48, light 49 (antibody)
heavy: EVQLVESGGGLVKPGGSLKLSCVASGFTFSTYAMSWVRQTPTKRLEWVATISRGGVSTYYPDTVKGRFTISRDNAKNTLYLQMSSLRSEDTAMYYCARPPTIVTTWFAYWGQGTLVTVSSGGGGSGGGGSQVQLKESGPGLVKPSLTLSLTCTVSGFSLNGYGVIWVRQPPGKGLEWMGVIWGNGNTNYNSTLKSRLSISRDTSKSQVFLKMNNLQTEDTAMYFCARSENYYSSPGYFAYWGQGTLVTVSS
light: DVVMTQTPLSLPVSLGDQASISCRSSQSLVHSNGNTYLHWYLQKPGQSPKLLIYKVSNRFSGVPDRFSGSGSGTDFTLKISRVEAEDLGAYFCSQSTHVPYTFGGPTRLEIKRGGSGGGGSGNTVMTQSPTSMFISVGDRVTMNCKASQNVGSDVDWYQQKTGQSPKLLISGTSNRYTGVPDRFTGSGSGTDFTLTISNMQAEDLAVYYCLQYNYNPTFGAGTKLELKR
B2: DVD3752: DVD-Ig: VD1 DNA(PA4), SS linker, VD2 mIgM (B7.6); heavy SEQ ID NO 50, light 51 (antibody)
heavy: EVQLVESGGGLVKPGGSLKLSCVASGFTFSTYAMSWVRQTPTKRLEWVATISRGGVSTYYPDTVKGRFTISRDNAKNTLYLQMSSLRSEDTAMYYCARPPTIVTTWFAYWGQGTLVTVSSASTKGPQVQLKESGPGLVKPSLTLSLTCTVSGFSLNGYGVIWVRQPPGKGLEWMGVIWGNGNTNYNSTLKSRLSISRDTSKSQVFLKMNNLQTEDTAMYFCARSENYYSSPGYFAYWGQGTLVTVSS
light: DVVMTQTPLSLPVSLGDQASISCRSSQSLVHSNGNTYLHWYLQKPGQSPKLLIYKVSNRFSGVPDRFSGSGSGTDFTLKISRVEAEDLGAYFCSQSTHVPYTFGGPTRLEIKRTVAAPNTVMTQSPTSMFISVGDRVTMNCKASQNVGSDVDWYQQKTGQSPKLLISGTSNRYTGVPDRFTGSGSGTDFTLTISNMQAEDLAVYYCLQYNYNPTFGAGTKLELKR
B3: DVD3755: DVD-Ig: VD1 DNA(PA4), LS linker, VD2 mIgM (B7.6); heavy SEQ ID NO 56, light 57 (antibody)
heavy: EVQLVESGGGLVKPGGSLKLSCVASGFTFSTYAMSWVRQTPTKRLEWVATISRGGVSTYYPDTVKGRFTISRDNAKNTLYLQMSSLRSEDTAMYYCARPPTIVTTWFAYWGQGTLVTVSSASTKGPSVFPLAPQVQLKESGPGLVKPSLTLSLTCTVSGFSLNGYGVIWVRQPPGKGLEWMGVIWGNGNTNYNSTLKSRLSISRDTSKSQVFLKMNNLQTEDTAMYFCARSENYYSSPGYFAYWGQGTLVTVSS
light: B2 light
B4: DVD3766: DVD-Ig: VD1 hIgM (HB-57.3), GS linker, VD2 DNA (PA4); heavy SEQ ID NO 76, light 77 (antibody)
heavy: QVQLQQPGAEFVKPGAPVKLSCKASGYPFTTYWVNWMKQRPGRGLEWIGRIDPYDSETLYNQKFKDKATLTVDKSSSTAYIQLSSLTSEDSAVYYCARETYDYPFAYWGQGTLVTVSSGGGGSGGGGSEVQLVESGGGLVKPGGSLKLSCVASGFTFSTYAMSWVRQTPTKRLEWVATISRGGVSTYYPDTVKGRFTISRDNAKNTLYLQMSSLRSEDTAMYYCARPPTIVTTWFAYWGQGTLVTVSS
light: DIVMTQSPSSLAMSVGQKVTMSCKSSQSLLNSSNQKNYLAWYQQKPGQSPELLVYFASTRESGVPDRFIGSGSGTDFTLTISSVQAEDLADYFCQQHYSTPFTFGSETKLEIKRGGSGGGGSGDVVMTQTPLSLPVSLGDQASISCRSSQSLVHSNGNTYLHWYLQKPGQSPKLLIYKVSNRFSGVPDRFSGSGSGTDFTLKISRVEAEDLGAYFCSQSTHVPYTFGGPTRLEIKR

How the values were obtained:
[1] = target: T1, mIgM; test: IgM binding ELISA (mouse IgM); conditions: mIgM-coated ELISA; half-log dilution 10 μg/ml-0.01 μg/ml
Procedure: Reactivity of the DVD-Ig proteins with mIgM was determined by enzyme-linked immunosorbent assay (ELISA). Briefly, each well of an Ultra Cruz 96 well microtiter plate (Santa Cruz Biotechnology, Dallas, Tex.) was coated with mIgM at a concentration of 1 μg/ml in 100 μl of PBS. The plate was covered in plastic wrap and incubated overnight at 4° C. Each well of the plate was then washed 3× with 300 μl of PBST. After the final wash, 200 μl of blocking buffer (1% BSA in PBS) was added to each well and the plate incubated at RT for 2 hours. The plate was then washed as above. Rows B-H of the microtiter plate were filled with 100 μl of dilution buffer (1% BSA in PBST). The DVD-Ig proteins were then diluted to […] in dilution buffer and 147 μl of a DVD-Ig protein was added in duplicate to row A of a 96 well plate. For a ½ log dilution, 47 μl was transferred from row A to row B. The pipette tips were replaced with clean tips and 47 μl from row B was transferred to row C. The serial transfers were repeated as above until row G. To assess the binding of the secondary detection reagent to the coated IgM, the final transfer 47 μl was only transferred from G1-G10 to H1-H10 and wells H11 and H12 were left containing 100 μl of dilution buffer. To maintain a 100 μl assay volume, 47 μl was removed from wells H1-H10 and G11-G12 and discarded. After the serial dilution was completed, the plate was incubated for 1-2 hours at RT. The plate was washed as above and then 100 μl of horseradish peroxidase conjugated goat α-hIgG Fc specific, diluted 1:3,000 in dilution buffer, was added to each well. The plate was incubated for 1 hour at RT and then washed 4× as above. The plate was developed by adding 100 μl of 3′,3′,5′,5′-Tetramethylbenzidine (TMB) substrate solution to each well and incubating the plate in the dark for 10-15 minutes. The enzymatic reaction was stopped by adding 100 μl of 1M H2SO4 to each well. The plate was read at 450 nm on an EnVision 2102 multilabel reader (Perkin Elmer, Waltham, Mass.).
DVD-Ig proteins DVD3751-DVD3760 were characterized by IgM binding assay at half-log dilution starting at 10 μg/ml-0.01 μg/ml according to the method of Example 2.5.
IgM binding ELISA: Titrations of the DVD-Ig™ proteins (10 μg/ml to 0.01 μg/ml) were added to ELISA plates coated with murine IgM. Bound antibody was detected with biotinylated anti-human IgG and streptavidin-HRP. EC50 were calculated from the titration curve using Prism6.

[2] = test system: DNA; test: Antinuclear antibody (ANA) test; format: binding; parameters: key to ANA score, relative result: (X)-(XXX) indicates relative results; (XX): (X)-(XXX) indicates relative results; (X)-(XXX) indicates relative results; conditions: for ANA score / ANA score, relative result: ANA staining at 10 μg/ml; for level of ANA staining: 10 μg/ml, among DVD3751-DVD3760
Procedure: The cloned BWR4 and PA4 antibodies as well as the DVD-Ig proteins were tested for ANA reactivity using the ANA test kit. Briefly, the DVD-Ig proteins and antibodies were diluted to […] in blocking buffer (1% BSA in PBS). The DVD-Ig proteins and antibodies were added to separate wells of an ANA slide at 50 μl/well and incubated in a moist chamber for 2 hours at room temperature (RT). The wells were then washed 3× with PBS. To detect bound antibodies, Alexa Fluor 488 conjugated goat α-human IgG (α-hIgG) was then added at a dilution of 1:1,000 and the slide incubated in a moist chamber for 1 hour. Unbound detecting antibody was removed by immersing the slide in a jar containing PBS and incubating for 10 minutes at RT with gentle rocking. The prior step was repeated 2× and 10 μl of Prolong® Gold Antifade was added to each well and a 24 mm×60 mm #1 cover glass seated on top. The covered slide was incubated overnight at RT and then sealed by applying clear nail polish to the edges. Binding of the DVD-Ig proteins and antibodies to the slides was assessed by fluorescence microscopy.
DVD-Ig proteins DVD3751-DVD3760 were characterized by antinuclear antibody (ANA) staining at 10 μg/ml according to the method of Example 2.4.
ANA: HEp-2 human tissue culture substrate slides were incubated with 5 μg/ml of the anti-DNA-IgG2a or the DVD-Ig™ binding protein for 2 hours at RT. The slides were washed and bound antibodies were detected with Alexa-488 goat anti-human antibody or DyLight 488 goat anti-mouse antibody.

[3] = test system: AM14 WT B cells; test: [3H]thymidine incorporation, BCR/TLR9 stimulation of AM14 WT B cells; format: cell-based, mouse; parameters: key to 3H incorporation AM14 WT, relative result: (X)-(XXX) indicates relative results; (XX): (X)-(XXX) indicates relative results; (X)-(XXX) indicates relative results; level of 3H incorporation / 3H incorporation AM14 WT: dose or concentration left out as unconfirmed; conditions: for 3H incorporation AM14 WT: 24 hours, then 6 hours pulse
Description: (§1) The AM14 B cell receptor (BCR) transgenic mouse has been described previously (Sweet et al. (2010) Autoimmun 43(8): 607-18). Briefly, AM14 is a BCR comprising the AM14 heavy chain and the Vk8 light chain that recognizes murine IgG2a (mIgG2a) of the “a” allotype. Between 95-98% of B cells in a mouse positive for the AM14 heavy chain and Vk8 light chain express the AM14 BCR. To generate AM14 B cells that are deficient in TLR9, TLR7 or FcγRIIB, the AM14 and Vk8 genes were bred to the appropriate knock out mice.
(§2) Primary murine B cells were purified by positive selection using BD Imag™ CD45R/B220 magnetic particles (BD Biosciences, San Jose, Calif.). Briefly, B cells were cultured in RPMI containing, pencillin-streptomycin, β-mercaptoethanol, and 5% heat-inactivated fetal calf serum (FCS) in 96 well flat bottom plates at a density of 4×10^5 cells/well. For stimulation through the BCR and TLR9, B cells were treated with a titration of 0.3 μg/ml-0.03 μg/ml of PA4 or 5 μg/ml to 0.15 μg/ml of a DVD-Ig protein (DVD3751, DVD3752, DVD3754, DVD3755, DVD3759 and DVD3760), unless otherwise noted. Cells were also treated with 1 μg/ml 1826, an experimental ligand for TLR9, as a control. After 24 hours, the cells were pulsed for 6 hours with [3H]thymidine (Perkin Elmer, Waltham Mass.). Incorporation of [3H]thymidine was quantified via a liquid scintillation beta counter (Trilux 1450 MicroBeta, PerkinElmer) according to standard methods.
(§3) DVD-Ig proteins DVD3751-DVD3760 were characterized by ^3H incorporation at […] according to the method of Example 2.6.

[4] = test system: AM14 TLR9−/− B cells; test: [3H]thymidine incorporation, BCR/TLR9 stimulation of AM14 TLR9-/- B cells; format: cell-based, mouse; conditions: at 5 mg/ml; 24 hours, then 6 hours pulse
Description: as §1, §2, §3

[5] = target: Human IgM (Homo sapiens, UniProt P01871); test: IgM binding assay (human IgM)
Human IgM, sequence (P01871 1-433 limits assumed): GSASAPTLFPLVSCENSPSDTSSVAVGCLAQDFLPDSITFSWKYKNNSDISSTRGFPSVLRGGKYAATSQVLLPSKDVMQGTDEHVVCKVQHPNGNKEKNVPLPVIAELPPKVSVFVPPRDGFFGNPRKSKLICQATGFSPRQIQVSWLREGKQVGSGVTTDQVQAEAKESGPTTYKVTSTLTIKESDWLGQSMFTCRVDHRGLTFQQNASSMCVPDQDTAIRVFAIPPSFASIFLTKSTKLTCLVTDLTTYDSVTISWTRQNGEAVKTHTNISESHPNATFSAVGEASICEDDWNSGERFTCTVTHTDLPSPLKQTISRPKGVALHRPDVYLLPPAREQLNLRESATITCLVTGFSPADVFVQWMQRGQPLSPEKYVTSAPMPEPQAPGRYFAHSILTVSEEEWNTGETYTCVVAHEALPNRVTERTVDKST
Human IgM, sequence (P01591 23-159 partner): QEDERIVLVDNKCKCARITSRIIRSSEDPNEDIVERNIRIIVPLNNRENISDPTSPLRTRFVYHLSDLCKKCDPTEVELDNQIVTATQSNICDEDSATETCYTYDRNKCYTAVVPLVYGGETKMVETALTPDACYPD

Molecule	IgM Binding EC50 [1] [µg/mL]	ANA score [2]	ANA score, relative result [2]	3H incorporation AM14 WT, relative result [3]	3H incorporation AM14 WT [3]	level of 3H incorporation ([3]; among DVD3751-DVD3760)	3H incorporation AM14 TLR9−/− [4]	level of ANA staining [2]	potency in human IgM binding assay [5]
B1	0.1909	2	(X)	(XXX)	(35554)	highest level of ^3H incorporation	(1184)	–	–
B2	0.205	4	(XXX)	(XX)	(12682)	–	(512)	highest level of staining	–
B3	0.09709	4.5	(XXX)	(X)	(8498)	–	(402)	highest level of staining	–
B4	–	–	–	–	–	–	–	–	highest potency
